B1: SNX8 (parent)
chain: LHQETQLIHVYLPLTSHILRAFVN
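Further: lentivirally expressed fusions sorted by FACS into six bins by GFP to DsRed ratio, PSI derived from sequencing read proportions per bin multiplied by bin number.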

Variants of B1 are the subject of this data set. Put plainly: protein stability index of a GFP-peptide fusion (GPS, HEK-293T) (PSI 1-6); higher = more stable. The following applies: c terminus: a fixed tail appended.
For the variant LHQETQLIHVYLPLKSHILRAFVN, the protein stability index is 3.35. The same measure for LHQETQLIHVYLPLFSHILRAFVN: 1.58; for LHQETQLIHVYLPLDSHILRAFVN: 3.4; for LHQETQLIHVYLPLASHILRAFVN: 2.23. In the case of LHQETQLIHVYLPLQSHILRAFVN, the protein stability index was found to be 1.75. As for LHQETQLIHVYLPLISHILRAFVN, the protein stability index came to 2.85. The same measure for LHQETQLIHVYLPLYSHILRAFVN: 1.79; for LHQETQLIHVYLPLLSHILRAFVN: 1.86; for LHQETQLTHVYLPLTSHILRAFVN: 2.1.

LHQETQLSHVYLPLTSHILRAFVN: the protein stability index is 2.03.

In the case of LHQETQLNHVYLPLTSHILRAFVN, the protein stability index is 2.09. Then LHQETQLYHVYLPLTSHILRAFVN, with 4.04; and LHQETQLVHVYLPLTSHILRAFVN, with 1.45; and LHQETQLMHVYLPLTSHILRAFVN, with 3.01.

On to LHQETQLRHVYLPLTSHILRAFVN, for which the protein stability index is 1.78.

As to LHQETQLQHVYLPLTSHILRAFVN, the protein stability index worked out at 1.68. Then LHQETQLLHVYLPLTSHILRAFVN, with 1.67; and LHQETQLPHVYLPLTSHILRAFVN, with 1.65.

On to LHQETQLWHVYLPLTSHILRAFVN, for which the protein stability index worked out at 2.6. Regarding LHQETQLIHTYLPLTSHILRAFVN, the protein stability index was 1.73. Then LHQETQLIHWYLPLTSHILRAFVN, with 2.2; and LHQETQLIHAYLPLTSHILRAFVN, with 1.19. LHQETQLIHSYLPLTSHILRAFVN: the protein stability index was 2.33.

With LHQETQLIHDYLPLTSHILRAFVN, the protein stability index is 1.87. For the variant LHQETQLIHEYLPLTSHILRAFVN, the protein stability index was 2.87. The same measure for LHQETQLIHRYLPLTSHILRAFVN: 2.21; for LHQETQLIHKYLPLTSHILRAFVN: 1.23.

For LHQETQLIHGYLPLTSHILRAFVN, the protein stability index came to 1.51.

Turning to LHQETQLIHHYLPLTSHILRAFVN, the protein stability index stood at 1.66. The same measure for LHQETQLIHYYLPLTSHILRAFVN: 2.24. The same measure for LHQETQLIHQYLPLTSHILRAFVN: 1.71; for LHQETQLIHMYLPLTSHILRAFVN: 2.22. The same measure for LHQETQLIHNYLPLTSHILRAFVN: 1.88; for LHQETQLIHPYLPLTSHILRAFVN: 1.76; for LHQETQLIHVTLPLTSHILRAFVN: 1.89. LHQETQLIHVSLPLTSHILRAFVN: the protein stability index worked out at 1.91. Consider LHQETQLIHVNLPLTSHILRAFVN, for which the protein stability index came out at 2.81. The same measure for LHQETQLIHVVLPLTSHILRAFVN: 1.99; for LHQETQLIHVDLPLTSHILRAFVN: 1.47; for LHQETQLIHVFLPLTSHILRAFVN: 2.14. The same measure for LHQETQLIHVPLPLTSHILRAFVN: 2.78; for LHQETQLIHVCLPLTSHILRAFVN: 3.22; for LHQETQLIHVGLPLTSHILRAFVN: 2.29.

With LHQETQLIHVMLPLTSHILRAFVN, the protein stability index came out at 3.64.

For the variant LHQETQLIHVKLPLTSHILRAFVN, the protein stability index amounted to 2.95. The same measure for LHQETQLIHVQLPLTSHILRAFVN: 3.1; for LHQETQLIHVRLPLTSHILRAFVN: 1.86; for LHQETQLIHVLLPLTSHILRAFVN: 2.05.

In the case of LHQETQLIHVALPLTSHILRAFVN, the protein stability index came out at 2.63.

Consider LHQETQLIHVYLPLTSHINRAFVN, for which the protein stability index stood at 1.99. Then LHQETQLIHVYLPLTSHIWRAFVN, with 1.57; and LHQETQLIHVYLPLTSHISRAFVN, with 2.3.

Consider LHQETQLIHVYLPLTSHIARAFVN, for which the protein stability index was 2.99. Then LHQETQLIHVYLPLTSHIIRAFVN, with 3.22.

Consider LHQETQLIHVYLPLTSHIERAFVN, for which the protein stability index is 2.23.

LHQETQLIHVYLPLTSHIGRAFVN: the protein stability index was determined as 3.75. The same measure for LHQETQLIHVYLPLTSHIQRAFVN: 5.08.

In the case of LHQETQLIHVYLPLTSHICRAFVN, the protein stability index is 2.66. The same measure for LHQETQLIHVYLPLTSHIHRAFVN: 2.24; for LHQETQLIHVYLPLTSHITRAFVN: 1.84. Then LHQETQLIHVYLPLTSHIPRAFVN, with 3.45. Consider LHQETQLIHVYLPLTSHIKRAFVN, for which the protein stability index is 2.47.

Take LHQETQLIHVYLPLTSHIFRAFVN: the protein stability index turned out to be 3.61.

With LHQETQLIHVYLPLTSHIYRAFVN, the protein stability index came to 3.67. Then LHQETQLIHVYLPLTSHIDRAFVN, with 1.52; and LHQETQLIHVYLPLTSHIVRAFVN, with 4.01.

As for LHQETQLIHVYLPLTMHILRAFVN, the protein stability index stood at 2. Then LHQETQLIHVYLPLTLHILRAFVN, with 2.08; and LHQETQLIHVYLPLTAHILRAFVN, with 1.94. Then LHQETQLIHVYLPLTWHILRAFVN, with 2.31. Then LHQETQLIHVYLPLTYHILRAFVN, with 2.08; and LHQETQLIHVYLPLTEHILRAFVN, with 2.16.

For LHQETQLIHVYLPLTQHILRAFVN, the protein stability index turned out to be 2.5. Consider LHQETQLIHVYLPLTVHILRAFVN, for which the protein stability index stood at 1.81. For the variant LHQETQLIHVYLPLTCHILRAFVN, the protein stability index stood at 2.36. The same measure for LHQETQLIHVYLPLTHHILRAFVN: 1.82; for LHQETQLIHVYLPLTKHILRAFVN: 2.77. Then LHQETQLIHVYLPLTNHILRAFVN, with 2.52. The same measure for LHQETQLIHVYLPLTIHILRAFVN: 1.47.

Turning to LHQETQLIHVYLPLTRHILRAFVN, the protein stability index is 2.83.

Consider LHQETQLIHVYLLLTSHILRAFVN, for which the protein stability index came out at 3.99. The same measure for LHQETQLIHVYLYLTSHILRAFVN: 1.95; for LHQETQLIHVYLVLTSHILRAFVN: 1.85.

On to LHQETQLIHVYLDLTSHILRAFVN, for which the protein stability index came out at 2.7. Then LHQETQLIHVYLRLTSHILRAFVN, with 2.29. Then LHQETQLIHVYLWLTSHILRAFVN, with 3.14; and LHQETQLIHVYLQLTSHILRAFVN, with 2.68; and LHQETQLIHVYLSLTSHILRAFVN, with 3.

As to LHQETQLIHVYLALTSHILRAFVN, the protein stability index was 3.59.

For LHQETQLIHVYLKLTSHILRAFVN, the protein stability index worked out at 1.72. Then LHQETQLIHVYLHLTSHILRAFVN, with 1.38. The same measure for LHQETQLIHVYLILTSHILRAFVN: 1.9; for LHQETQLIHVYLMLTSHILRAFVN: 2.55. Then LHQETQLIHVYLTLTSHILRAFVN, with 2.91.

For the origin of these results see the supplement of paper PMC10567573.
